In PMC10907169:
“And” between values parts separate entries of the source, which are not always exact repeats. Equal entries are not always repeated.

Target: T1, Full-length human KIF5A heavy chain (WT), C-terminal FLAG tag (human), Q12840
T1 chain: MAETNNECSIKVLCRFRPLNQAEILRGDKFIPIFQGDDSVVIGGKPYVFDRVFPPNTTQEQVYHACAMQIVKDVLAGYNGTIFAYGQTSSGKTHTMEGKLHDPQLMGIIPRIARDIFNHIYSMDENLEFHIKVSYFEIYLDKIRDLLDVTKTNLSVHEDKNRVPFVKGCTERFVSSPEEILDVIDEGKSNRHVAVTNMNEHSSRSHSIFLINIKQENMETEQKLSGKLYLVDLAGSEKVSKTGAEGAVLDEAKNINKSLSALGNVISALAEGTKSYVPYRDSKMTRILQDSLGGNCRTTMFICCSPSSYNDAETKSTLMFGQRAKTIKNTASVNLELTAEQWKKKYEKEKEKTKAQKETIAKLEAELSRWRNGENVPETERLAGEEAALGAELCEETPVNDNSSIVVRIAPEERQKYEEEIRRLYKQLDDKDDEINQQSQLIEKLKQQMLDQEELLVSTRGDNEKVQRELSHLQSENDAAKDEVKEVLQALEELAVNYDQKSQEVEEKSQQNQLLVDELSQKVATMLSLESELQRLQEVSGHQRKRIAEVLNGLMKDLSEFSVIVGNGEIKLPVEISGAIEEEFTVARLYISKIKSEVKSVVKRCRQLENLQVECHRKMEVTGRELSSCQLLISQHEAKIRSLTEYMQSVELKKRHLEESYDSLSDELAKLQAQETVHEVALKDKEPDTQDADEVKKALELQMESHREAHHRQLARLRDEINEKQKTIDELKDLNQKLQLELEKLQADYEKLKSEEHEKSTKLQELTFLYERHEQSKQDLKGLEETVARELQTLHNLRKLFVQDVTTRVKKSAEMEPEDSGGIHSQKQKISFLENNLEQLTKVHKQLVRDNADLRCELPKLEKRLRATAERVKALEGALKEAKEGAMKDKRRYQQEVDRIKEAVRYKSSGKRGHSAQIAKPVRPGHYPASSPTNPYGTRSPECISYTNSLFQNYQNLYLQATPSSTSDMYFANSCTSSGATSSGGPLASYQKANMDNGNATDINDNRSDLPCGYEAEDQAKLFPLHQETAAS
Assay: mass photometry; single-molecule landing assay, Refeyn OneMP, 25 nM KIF5A, room temperature (~23 °C); results say low salt buffer (150 mM KCl), methods name PBS; monomer to dimer, and dimers to tetramer
Details: remark: other sources report otherwise

B1: Full-length human KIF5A heavy chain (WT), C-terminal FLAG tag, Q12840 1-1032 (natural protein)
chain: T1 chain
Q: For B1, which stoichiometry N is on record?
A: Its stoichiometry N is 2 and 4.
